Reference: patent JP2018087218A (dated 2018)

Biological target: T1, ヒトCD38 (SPRで注入されたCD38) (human, UniProt P28907 43-300)
T1 sequence: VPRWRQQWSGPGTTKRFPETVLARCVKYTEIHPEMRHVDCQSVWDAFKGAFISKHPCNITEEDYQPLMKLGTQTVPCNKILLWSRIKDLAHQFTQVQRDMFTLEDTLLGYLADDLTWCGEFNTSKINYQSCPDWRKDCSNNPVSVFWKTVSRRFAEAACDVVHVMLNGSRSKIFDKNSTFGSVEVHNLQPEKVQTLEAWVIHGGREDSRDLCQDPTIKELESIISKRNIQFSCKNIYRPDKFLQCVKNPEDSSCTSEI
Assay: SPR (Biacore), antibody captured on protein A, CD38 injected

Kd: 0.378 to 27 nM
B1: X02.1 (antibody, human IgG4 S228P, lambda, V domains shown)
VH: QLQLQESGPGLVKPSETLSLTCTVSGGSISSSSYYWSWIRQHPGKGLEWIGYIYYSGSTNYNPSLKSRVTISVDTLKNQISLRLTSVTAADTAVYYCARVGGAGGWPMDVWGQGTTVTVSS
VL: QAVLTQPASLSASPGESARLTCTLPSDINVRYYNIYWYQQKPGSPPRYLLYYYSDSHKGQGSGVPSRFSGSKDVSTNSGILLISGLQSEDEADYYCMTWSSNGSGVFGGGTQLTVLG
notes: X02.1 has no IFN fusion; also called 親抗体X02.1; A02.1 (X355/02-HC-L0-IFN-アルファ(A145D)IgG4) の非融合抗体
